The record followed here is patent publication US20240415919A1, “COMPOSITIONS AND METHODS FOR TREATMENT OF AUTOIMMUNE DISORDERS AND CANCER” (Dana-Farber Cancer Institute, Inc., priority 2021, published 2024).

For one assay, the target named is Ly49F (mouse) (UniProt Q60653). Description: cell-based or functional assay.
Another assay deals with Balb/C heart allografts. Briefly: Balb/C heart transplantation into skin-sensitized B6 hosts after peptide vaccination. The note with it: immunized hosts, FIG. 11B.
For the next assay, the system named is FL9.2 T cells. Description: FL9 peptide immunization of hosts adoptively transferred with FL9.2 T cells. In kind it is in vivo, mouse. Here is the method:
CD45.1+B6 hosts were adoptively transferred with FL9.2 T cells and immunized i.p. with FL9 in CFA or no peptide (CFA alone) on day 0. Three days later, activation (CD69) proliferation of FL9.2 T cells (Ki67) was measured.
CD45.1^+ B6 or TCRα^−/− mice were transferred with CFSE labelled 2×10^6 FL9.2 Tg T cells followed by i.p. immunization with 100 μg FL9 or FL9-68 peptides in CFA. Proliferation and activation of FL9.2 Tg T cells in the adoptive hosts were analzyed by assessing CFSE dilution, Ki67 and CD69 expression at day 3 and 6 after transfer.
CD45.1^+B6 or TCRα^−/− mice were transferred with CFSE labelled 2×10^6 FL9.2 Tg T cells followed by i.p. immunization with 100 μg FL9 or FL9-68 peptides in CFA. Proliferation and activation of FL9.2 Tg T cells in the adoptive hosts were analzyed by assessing CFSE dilution, Ki67 and CD69 expression at day 3 and 6 after transfer.

Assay [1] deals with T1, FL9 self-peptide (source protein not named) peptide on Qa-1b (mouse).
T1 peptide: FYAEATPML
Description: multimer staining.

Assay [2] concerns the target T2, FL9-68, synthetic superagonist variant of the FL9 self-peptide (P to L at position 7) peptide on Qa-1b (mouse).
T2 peptide: FYAEATLML
Description: activation reporter or marker.

For assay [3], the target named is T1, FL9 self-peptide (source protein not …). Description: Kd or kinetics.
Assay [4] addresses T3, Hsp60 (Hsp60p216) peptide on Qa-1b (mouse).
T3 peptide: GMKFDRGYI
Briefly: multimer staining.

Substitutions are numbered along the chain they refer to.

Ly49F (mouse), sequence (Q60653 whole entry): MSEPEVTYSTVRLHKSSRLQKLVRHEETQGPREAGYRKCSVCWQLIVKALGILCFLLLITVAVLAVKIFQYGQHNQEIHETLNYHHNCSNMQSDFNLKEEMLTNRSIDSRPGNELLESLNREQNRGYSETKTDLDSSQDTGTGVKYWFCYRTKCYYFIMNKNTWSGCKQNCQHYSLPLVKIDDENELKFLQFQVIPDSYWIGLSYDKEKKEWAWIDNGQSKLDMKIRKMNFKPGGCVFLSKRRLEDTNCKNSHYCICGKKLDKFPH

As to “Chimeric anti-Ly49F Ab (HBF-719 with mIgG2a Fc) (antibody)”, the depletion of Ly49F+ CD8 Treg in spleen, lymphocytes and blood with Ly49F (mouse) is above 95%. As to “FYAEATPML [FL9, Qa-1-associated self-peptide, reference compound]”, the “expansion of FL9-Qa-1 tetramer binding CD8 Treg (CD44+CD122+Ly49+CD8+T)” value in the assay with Balb/C heart allografts is listed as 8 fold. Further, in the assay on FL9.2 T cells (i.p. immunization with peptide in CFA, CD45.1+ B6 or TCRα-/- hosts), the “in vivo activation/proliferation of transferred FL9 TCR+ CD8 T cells” value is given as “no in vivo stimulation of FL9.2 T cells”. Further, the “expansion of CD8 Treg after immunization” value in the assay on FL9.2 T cells (immunization of mice with the self-peptide) is given as “did not elicit detectable expansion of CD8 Treg”.

B1: FL9.38 (TCR, V domains shown)
Valpha: QQKVQQSPESLSVPEGGMASLNCTSSDRNFQYFWWYRQHSGEGPKALMSIFSDGDKKEGRFTAHLNKASLHVSLHIRDSQPSDSALYFCALSESSGSWQLIFGSGTQLTVMP
Vbeta: EAAVTQSPRSKVAVTGGKVTLSCHQTNNHDYMYWYRQDTGHGLRLIHYSYVADSTEKGDIPDGYKASRPSQENFSLILELASLSQTAVYFCASRDRGDQNTLYFGAGTRLSVL
In the case of B1, in assay [1], the binding result is “no recognition”.

B2: FL9.8 TCR (TCR, V domains shown)
Valpha: AQSVTQPDARVTVSEGASLQLRCKYSYFGTPYLFWYVQYPRQGLQLLLKYYPGDPVVQGVNGFEAEFSKSNSSFHLRKASVHWSDWAVYFCAVRANYAQGLTFGLGTRVSVFP
Vbeta: NSGVVQSPRYIIKGKGERSILKCIPISGHLSVAWYQQTQGQELKFFIQHYDKMERDKGNLPSRFSVQQFDDYHSEMNMSALELEDSAVYFCASSLLGGPSAETLYFGSGTRLTVL
Turning to B2, the binding result in assay [2] is recorded as “recognises”; in assay [3], “recognises”; in assay [4] it was “no recognition”.

B3: FL9.34 (TCR, V domains shown)
Valpha: B2 Valpha with A95G, N96Q, Y97G, A98G, Q99R, G100A, T102I, L105T, R108T, F112S
Vbeta: NSGVVQSPRYIIKGKGERSILKCIPISGHLSVAWYQQTQGQELKFFIQHYDKMERDKGNLPSRFSVQQFDDYHSEMNMSALELEDSAVYFCASSPGPSQNTLYFGAGTRLSVL
Consider B3, for which, in assay [1], the binding result was “recognises”.

B4: FL9.26 (TCR, V domains shown)
Valpha: AQSVTQPDARVTVSEGASLQLRCKYSYFGTPYLFWYVQYPRQGLQLLLKYYPGDPVVQGVNGFEAEFSKSNSSFHLRKASVHWSDWAVYFCAVSTGGYKVVFGSGTRLLVSP
Vbeta: NSGVVQSPRYIIKGKGERSILKCIPISGHLSVAWYQQTQGQELKFFIQHYDKMERDKGNLPSRFSVQQFDDYHSEMNMSALELEDSAVYFCASSHRSFSGNTLYFGEGSRLIVV
On to B4, for which, in assay [1], the binding result was “recognises”.

B5: FL9.31 (TCR, V domains shown)
Valpha: AQSVTQPDARVTVSEGASLQLRCKYSYFGTPYLFWYVQYPRQGLQLLLKYYPGDPVVQGVNGFEAEFSKSNSSFHLRKASVHWSDWAVYFCAVKDSGYNKLTFGKGTVLLVSP
Vbeta: NSGVVQSPRYIIKGKGERSILKCIPISGHLSVAWYQQTQGQELKFFIQHYDKMERDKGNLPSRFSVQQFDDYHSEMNMSALELEDSAVYFCASSLAGREQYFGPGTRLTVL
With B5, the binding result in assay [1] is “recognises”.

B6: FL9.15 (TCR, V domains shown)
Valpha: GDSVTQTEGPVTVSESESLIINCTYSATSIAYPNLFWYVRYPGEGLQLLLKVITAGQKGSSRGFEATYNKETTSFHLQKASVQESDSAVYYCALGEASSGSWQLIFGSGTQLTVMP
Vbeta: DSGVVQSPRHIIKEKGGRSVLTCIPISGHSNVVWYQQTLGKELKFLIQHYEKVERDKGFLPSRFSVQQFDDYHSEMNMSALELEDSAMYFCASSLGQGNYAEQFFGPGTRLTVL
As to B6, in assay [1], the binding result is on record as “no recognition”.

B7: FL9.35 (TCR, V domains shown)
Valpha: B4 Valpha with T95M, G96M, V100L, V101T, S104T, R107S, S111D
Vbeta: B6 Vbeta with L95R, G96T, Q97G, N99S, Y100A, A101E, E102T, Q103L, F104Y, P107S
Turning to B7, the binding result in assay [1] is “recognises”.

B8: FL9.40 (TCR, V domains shown)
Valpha: AQSVTQPDARVTVSEGASLQLRCKYSYFGTPYLFWYVQYPRQGLQLLLKYYPGDPVVQGVNGFEAEFSKSNSSFHLRKASVHWSDWAVYFCAVTRYGSSGNKLIFGIGTLLSVKP
Vbeta: B6 Vbeta with L95P, G96R, Q97L, N99S, Y100A, A101E, E102T, Q103L, F104Y, P107S
For the molecule B8, the binding result in assay [1] is reported as “recognises”.

B9: FL9.41 (TCR, V domains shown)
Valpha: AQSVTQPDARVTVSEGASLQLRCKYSYFGTPYLFWYVQYPRQGLQLLLKYYPGDPVVQGVNGFEAEFSKSNSSFHLRKASVHWSDWAVYFCAVSIWATSSGQKLVFGQGTILKVYL
Vbeta: VTLLEQNPRWRLVPRGQAVNLRCILKNSQYPWMSWYQQDLQKQLQWLFTLRSPGDKEVKSLPGADYLATRVTDTELRLQVANMSQGRTLYCTCSARQGSGNTLYFGEGSRLIVV
B9: the binding result in assay [1] was “recognises”.

B10: FL9.2 TCR (TCR, V domains shown)
Valpha: AQSVTQPDARVTVSEGASLQLRCKYSYFGTPYLFWYVQYPRQGLQLLLKYYPGDPVVQGVNGFEAEFSKSNSSFHLRKASVHWSDWAVYFCAVRANTGKLTFGDGTVLTVKP
Vbeta: DSGVVQSPRHIIKEKGGRSVLTCIPISGHSNVVWYQQTLGKELKFLIQHYEKVERDKGFLPSRFSVQQFDDYHSEMNMSALELEDSAMYFCASSPRLASAETLYFGSGTRLTVL
Regarding B10, the binding result in assay [2] was “recognises”.

B11: FL9.30 (TCR, V domains shown)
Valpha: AQSVTQPDARVTVSEGASLQLRCKYSYFGTPYLFWYVQYPRQGLQLLLKYYPGDPVVQGVNGFEAEFSKSNSSFHLRKASVHWSDWAVYFCAVSSNNAGAKLTFGGGTRLTVRP
Vbeta: B10 Vbeta with P95R, L97P
B11: the binding result in assay [1] is “recognises”.

B12: FL9.43 (TCR, V domains shown)
Valpha: B10 Valpha with R94K, A95S, N96T, T97G, G98S, T101S, D104K, T106A, V107K, K111S
Vbeta: B4 Vbeta with H95P, S97L, F98G, G100A, N101E, E107S, S109T, I112T, V114L
Turning to B12, in assay [1], the binding result is given as “recognises”.

B13: FL9.5 (TCR, V domains shown)
Valpha: B4 Valpha with S94K, T95G, G97N, V100P, V101T, S104K, R107S, L109V, S111H
Vbeta: NSGVVQSPRYIIKGKGERSILKCIPISGHLSVAWYQQTQGQELKFFIQHYDKMERDKGNLPSRFSVQQFDDYHSEMNMSALELEDSAVYFCASSLTGAYEQYFGPGTRLTVL
As to B13, the binding result in assay [1] is recorded as “recognises”.
